Data taken from article PMC8921277.

Target: RSV F DS-Cav1 (human respiratory syncytial virus) (UniProt P03420)
Assay: BLI; […] (AHC) biosensors, […] (300-0.41 nM); Octet RED96e; […]

Sequence of UniProt P03420 (P03420 26-513): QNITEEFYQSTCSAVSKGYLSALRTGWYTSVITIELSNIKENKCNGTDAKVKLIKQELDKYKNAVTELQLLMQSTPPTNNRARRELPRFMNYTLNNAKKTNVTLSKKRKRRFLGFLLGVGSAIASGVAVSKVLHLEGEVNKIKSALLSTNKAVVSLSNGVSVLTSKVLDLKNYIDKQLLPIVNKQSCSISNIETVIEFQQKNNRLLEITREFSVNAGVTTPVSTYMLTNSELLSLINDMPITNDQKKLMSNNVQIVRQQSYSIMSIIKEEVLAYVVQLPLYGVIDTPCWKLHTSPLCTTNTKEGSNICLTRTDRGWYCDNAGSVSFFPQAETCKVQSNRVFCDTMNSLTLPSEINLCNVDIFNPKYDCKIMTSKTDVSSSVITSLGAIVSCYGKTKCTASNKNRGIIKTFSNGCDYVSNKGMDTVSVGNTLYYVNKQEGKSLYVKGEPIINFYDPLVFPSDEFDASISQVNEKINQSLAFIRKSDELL
Sequence of MPE8 Fab (VH): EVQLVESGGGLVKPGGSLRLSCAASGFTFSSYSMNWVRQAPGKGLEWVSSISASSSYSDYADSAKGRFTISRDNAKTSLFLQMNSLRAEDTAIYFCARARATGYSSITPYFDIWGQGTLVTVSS
Sequence of MPE8 Fab (VL): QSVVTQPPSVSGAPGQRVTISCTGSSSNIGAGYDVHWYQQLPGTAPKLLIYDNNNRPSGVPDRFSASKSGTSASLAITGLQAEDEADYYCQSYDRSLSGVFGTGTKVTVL

## MPE8 Fab
  Kd: < 1 pM
  koff: < 1e-07 s⁻¹
  kon: 360000 M⁻¹ s⁻¹
